The record followed here is patent US20150182581A1.

Test in all cases: cell-based or functional assay
Test [1] deals with HIV-1 Nef (full length Nef gene, accession no. GQ184335) cloned in VP16pCDNA+pACT mammalian two-hybrid vector (herpes simplex virus type 1; HIV-1).
The target of test [2] is ASK1(g) cloned in pEYFP-N1 (human) (UniProt Q99683).
Test [3] concerns the target ASK1(h) cloned in pEYFP-N1 (human) (UniProt Q99683).
Test [4] addresses ASK1i cloned in pEYFP-N1 (human) (UniProt Q99683).

Sequence of ASK1(g) cloned in pEYFP-N1 (human) (Q99683 1-1050): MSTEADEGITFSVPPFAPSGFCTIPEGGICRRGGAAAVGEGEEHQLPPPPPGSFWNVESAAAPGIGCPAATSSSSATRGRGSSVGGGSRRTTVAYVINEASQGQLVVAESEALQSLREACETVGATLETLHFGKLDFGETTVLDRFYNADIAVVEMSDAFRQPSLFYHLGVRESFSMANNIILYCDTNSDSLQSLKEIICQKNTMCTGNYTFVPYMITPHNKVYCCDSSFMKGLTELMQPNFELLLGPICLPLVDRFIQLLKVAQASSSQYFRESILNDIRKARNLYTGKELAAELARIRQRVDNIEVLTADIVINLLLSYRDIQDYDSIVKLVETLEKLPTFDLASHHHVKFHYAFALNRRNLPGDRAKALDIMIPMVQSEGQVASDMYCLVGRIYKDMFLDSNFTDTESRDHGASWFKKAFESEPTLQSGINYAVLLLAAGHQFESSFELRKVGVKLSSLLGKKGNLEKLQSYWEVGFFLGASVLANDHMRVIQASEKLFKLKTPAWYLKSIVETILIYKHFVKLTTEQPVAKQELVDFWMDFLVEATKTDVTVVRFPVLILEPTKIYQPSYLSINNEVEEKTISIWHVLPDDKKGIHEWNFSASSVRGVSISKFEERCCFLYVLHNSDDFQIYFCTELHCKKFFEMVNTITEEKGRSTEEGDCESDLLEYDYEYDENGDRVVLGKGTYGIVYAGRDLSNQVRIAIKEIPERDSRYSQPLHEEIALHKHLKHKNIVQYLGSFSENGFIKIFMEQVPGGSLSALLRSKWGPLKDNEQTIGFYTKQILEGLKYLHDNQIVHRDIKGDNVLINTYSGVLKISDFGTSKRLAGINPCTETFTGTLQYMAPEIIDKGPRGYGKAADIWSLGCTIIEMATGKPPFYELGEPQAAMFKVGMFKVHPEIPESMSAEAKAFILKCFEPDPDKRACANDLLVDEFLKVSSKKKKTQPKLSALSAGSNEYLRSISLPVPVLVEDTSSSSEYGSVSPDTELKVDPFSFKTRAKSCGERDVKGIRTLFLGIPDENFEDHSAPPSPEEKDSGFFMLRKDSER
Sequence of ASK1(h) cloned in pEYFP-N1 (human) (Q99683 320-1050): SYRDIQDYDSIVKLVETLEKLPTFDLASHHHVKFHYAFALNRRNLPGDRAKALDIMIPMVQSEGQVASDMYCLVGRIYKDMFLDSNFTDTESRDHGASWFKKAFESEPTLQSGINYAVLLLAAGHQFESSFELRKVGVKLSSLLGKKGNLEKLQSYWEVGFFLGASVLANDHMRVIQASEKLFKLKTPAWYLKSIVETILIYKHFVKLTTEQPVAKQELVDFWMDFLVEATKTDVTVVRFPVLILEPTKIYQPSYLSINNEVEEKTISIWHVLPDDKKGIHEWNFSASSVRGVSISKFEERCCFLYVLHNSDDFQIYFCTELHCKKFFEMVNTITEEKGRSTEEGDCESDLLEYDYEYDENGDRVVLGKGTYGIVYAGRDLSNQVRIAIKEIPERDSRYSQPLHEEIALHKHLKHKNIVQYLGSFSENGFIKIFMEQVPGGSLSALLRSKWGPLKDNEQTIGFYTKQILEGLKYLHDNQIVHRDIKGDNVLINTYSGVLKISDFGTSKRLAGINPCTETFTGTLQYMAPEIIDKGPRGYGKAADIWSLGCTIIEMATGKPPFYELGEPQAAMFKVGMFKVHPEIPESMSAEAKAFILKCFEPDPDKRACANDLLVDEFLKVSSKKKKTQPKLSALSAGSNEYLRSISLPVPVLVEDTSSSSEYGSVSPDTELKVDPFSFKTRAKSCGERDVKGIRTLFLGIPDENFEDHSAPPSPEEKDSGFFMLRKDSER
Sequence of ASK1i cloned in pEYFP-N1 (human) (Q99683 1-904): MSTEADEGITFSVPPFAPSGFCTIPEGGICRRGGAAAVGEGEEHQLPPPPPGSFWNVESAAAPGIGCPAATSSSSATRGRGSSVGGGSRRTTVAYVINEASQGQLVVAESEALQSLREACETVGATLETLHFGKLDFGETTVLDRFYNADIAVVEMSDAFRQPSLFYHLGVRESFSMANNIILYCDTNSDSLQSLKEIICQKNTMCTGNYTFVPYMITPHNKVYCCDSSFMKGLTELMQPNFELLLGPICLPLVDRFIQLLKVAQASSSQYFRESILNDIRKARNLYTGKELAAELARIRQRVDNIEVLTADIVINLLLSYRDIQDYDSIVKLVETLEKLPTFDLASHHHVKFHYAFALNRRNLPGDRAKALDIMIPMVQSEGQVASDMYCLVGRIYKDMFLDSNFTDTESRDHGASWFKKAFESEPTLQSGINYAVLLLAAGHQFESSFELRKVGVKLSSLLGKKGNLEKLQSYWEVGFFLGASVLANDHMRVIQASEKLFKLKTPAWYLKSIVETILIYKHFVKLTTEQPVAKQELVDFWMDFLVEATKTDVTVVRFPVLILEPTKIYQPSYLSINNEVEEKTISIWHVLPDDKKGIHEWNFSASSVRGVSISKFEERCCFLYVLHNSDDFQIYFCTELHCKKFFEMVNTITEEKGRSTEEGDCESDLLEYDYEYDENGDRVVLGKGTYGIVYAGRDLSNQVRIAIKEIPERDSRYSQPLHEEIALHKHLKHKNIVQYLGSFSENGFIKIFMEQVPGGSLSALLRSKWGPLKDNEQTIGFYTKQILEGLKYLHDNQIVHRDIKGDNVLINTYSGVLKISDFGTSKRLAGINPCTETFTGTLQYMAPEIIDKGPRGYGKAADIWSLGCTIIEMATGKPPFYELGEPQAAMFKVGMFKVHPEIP

In the case of “ASK1h (Contain ASK1d and upstream sequence) cloned in pBIND (from UniProt P04386 1-147; Q99683 320-1050)”, the luciferase activity compared to negative control in test [1] is 8.41 fold.

For “HIV-1 Nef (accession no. GQ184335) cloned in pEYFP-N1”, in test [2], the % of Annexin V cells means apoptotic cells was 22.1%; the annexin V stained cells after co-transfection was 20%; the inhibition of apoptosis was determined as 52%; the inhibition of apoptosis (annexin V and PI staining) worked out at 50%. Also, in test [2], the phosphorylation of JNK kinase (western blot, densitometry) turned out to be 2 fold. Further, in test [3], the annexin V stained cells after co-transfection turned out to be 38% and the inhibition of apoptosis is 10%. In test [4], this substance showed an annexin V stained cells after co-transfection of 26% and an inhibition of apoptosis of 42%.

In turn, “ASK1b (959-2010) cloned in pBIND (from UniProt P04386 1-147; Q99683 320-670)” had a luciferase activity compared to negative control pACT-pBIND in test [1] of 1.1 fold.

In turn, “ASK1d (2581-3152) cloned in pBIND (from UniProt P04386 1-147; Q99683 861-1050)” had a luciferase activity compared to negative control pACT-pBIND in test [1] of 2.89 fold.

“ASK1a (1-1035) cloned in pBIND (from UniProt P04386 1-147; Q99683 1-345)” showed a luciferase activity compared to negative control pACT-pBIND in test [1] of 2.28 fold.

Substance “ASK1g (contain both ASK1a, ASK1d and in between sequence) cloned in pBIND (from UniProt P04386 1-147; Q99683 1-1050)” came in with a luciferase activity compared to negative control pACT-pBIND in test [1] of 154 fold.

The substance “ASK1i (contain ASK1a and downstream sequence) cloned in pBIND (from UniProt P04386 1-147; Q99683 1-904)” registered a luciferase activity compared to negative control in test [1] of 2.72 fold.

In turn, “ASK1j (contain in between ASK1a and ASK1d fragment) cloned in pBIND (from UniProt P04386 1-147; Q99683 320-904)” displayed a luciferase activity compared to negative control in test [1] of 0.5 fold.
